Measurements taken from patent publication US20130064834A1 (published 2013).

Assays:
[1] = target: T1, cynomolgus monkey (Macaca fascicularis) PCSK9, myc-myc-his tagged (cynomolgus monkey (Macaca fascicularis), UniProt A8T662 31-692 (Macaca nemestrina entry), limits assumed); experiment: SPR, mAb amine-coupled, 25C, pH 5.5
T1 construct: also called mfPCSK9-mmh; mfPCSK9
Text: (§1) Briefly, mAbs were immobilized onto BIACORE™ CM5 sensor chips via amine coupling.

Human PCSK9-myc-myc-his [2] = target: T2, Human PCSK9-myc-myc-his (human, UniProt Q8NBP7 31-692); experiment: SPR, mAb amine-coupled, 25C, pH 5.5
T2 construct: also called hPCSK9-mmh; hPCSK9
Text: as §1

hPCSK9(D374Y)-mmh [3] = target: T3, hPCSK9(D374Y)-mmh (human, UniProt Q8NBP7 31-692); experiment: SPR, mAb amine-coupled, 25C, pH 5.5
T3 construct: also called hPCSK(D374Y)-mmh
Text: as §1

Human PCSK9-myc-myc-his [4] = target: T2, Human PCSK9-myc-myc-his; experiment: cell-based or functional assay
Human PCSK9-myc-myc-his [5] = target: T2, Human PCSK9-myc-myc-his; experiment: competition ELISA vs hLDLR-ecto, pH 7.2
Experimental: (§2) Briefly, hLDLR-ecto, hLDLR EGF-A-hFc or hLDLR EGF-AB-hFc, each at 2 μg/ml, was coated on a 96-well plate in PBS buffer overnight at 4° C., and nonspecific binding sites blocked with BSA. […] The equilibrated sample solutions were transferred to receptor or receptor fragment coated plates.

Human PCSK9-myc-myc-his [6] = target: T2, Human PCSK9-myc-myc-his; experiment: competition ELISA vs EGF-A-hFc, pH 7.2
Experimental: as §2

hPCSK9(D374Y)-mmh [7] = target: T3, hPCSK9(D374Y)-mmh; experiment: SPR, mAb captured on anti-human IgG, 25C
Human PCSK9-myc-myc-his [8] = target: T2, Human PCSK9-myc-myc-his; experiment: competition ELISA vs EGF-A-hFc, pH 5.5
Experimental: as §2

Human PCSK9-myc-myc-his [9] = target: T2, Human PCSK9-myc-myc-his; experiment: SPR, antigen captured at low density, pH 5.5, 25C
Human PCSK9-myc-myc-his [10] = target: T2, Human PCSK9-myc-myc-his; experiment: SPR, antigen captured at high density, pH 7.4, 25C
Human PCSK9-myc-myc-his [11] = target: T2, Human PCSK9-myc-myc-his; experiment: ELISA, mAb coated, 1.7 nM antigen
hPCSK9(A341R) = target: T4, hPCSK9(A341R) (human, UniProt Q8NBP7 31-692); experiment: SPR, mAb captured, 25C;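 note: antibodies held on a sensor chip bearing chemically coupled F(ab′)2 anti-human IgG as the capture surface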
T4 construct: mmh-tagged variant hPCSK9
Text: (§3) Each selected antibody was captured on a F(ab′)2 anti-hIgG surface created through direct chemical coupling to a BIACORE™ chip to form a captured antibody surface.

hPCSK9(P70A) = hPCSK9(P70A) (human, UniProt Q8NBP7 31-692); experiment: SPR, mAb captured, 25C;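 note: antibodies held on a sensor chip bearing chemically coupled F(ab′)2 anti-human IgG as the capture surface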
Text: as §3

hPCSK9(S153R) = target: T5, hPCSK9(S153R) (human, UniProt Q8NBP7 31-692); experiment: SPR, mAb captured, 25C;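 note: antibodies held on a sensor chip bearing chemically coupled F(ab′)2 anti-human IgG as the capture surface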
T5 construct: mmh-tagged variant hPCSK9
Text: as §3

hPCSK9(D129G) = target: T6, hPCSK9(D129G) (human, UniProt Q8NBP7 31-692); experiment: SPR, mAb captured, 25C;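 note: antibodies held on a sensor chip bearing chemically coupled F(ab′)2 anti-human IgG as the capture surface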
T6 construct: mmh-tagged variant hPCSK9
Text: as §3

hPCSK9(S127R) = target: T7, hPCSK9(S127R) (human, UniProt Q8NBP7 31-692); experiment: SPR, mAb captured, 25C
T7 construct: mmh-tagged variant hPCSK9
Text: as §3

hPCSK9(E159R) = target: T8, hPCSK9(E159R) (human, UniProt Q8NBP7 31-692); experiment: SPR, mAb captured, 25C
T8 construct: mmh-tagged variant hPCSK9
Text: as §3

hPCSK9(F216L) = target: T9, hPCSK9(F216L) (human, UniProt Q8NBP7 31-692); experiment: SPR, mAb captured, 25C
T9 construct: mmh-tagged variant hPCSK9
Text: as §3

hPCSK9(R237E) = target: T10, hPCSK9(R237E) (human, UniProt Q8NBP7 31-692); experiment: SPR, mAb captured, 25C
T10 construct: mmh-tagged variant hPCSK9
Text: as §3

hPCSK9(R357H) = target: T11, hPCSK9(R357H) (human, UniProt Q8NBP7 31-692); experiment: SPR, mAb captured, 25C
T11 construct: mmh-tagged variant hPCSK9
Text: as §3

hPCSK9(E197R) = target: T12, hPCSK9(E197R) (human, UniProt Q8NBP7 31-692); experiment: SPR, mAb captured, 25C
T12 construct: mmh-tagged variant hPCSK9
Text: as §3

hPCSK9(D192R) = target: T13, hPCSK9(D192R) (human, UniProt Q8NBP7 31-692); experiment: SPR, mAb captured, 25C
T13 construct: mmh-tagged variant hPCSK9
Text: as §3

hPCSK9(E366K) = target: T14, hPCSK9(E366K) (human, UniProt Q8NBP7 31-692); experiment: SPR, mAb captured, 25C
T14 construct: mmh-tagged variant hPCSK9
Text: as §3

hPCSK9(E366K, V380M) = target: T15, hPCSK9(E366K, V380M) (human, UniProt Q8NBP7 31-692); experiment: SPR, mAb captured, 25C
T15 construct: mmh-tagged variant hPCSK9
Text: as §3

hPCSK9(T162R) = target: T16, hPCSK9(T162R) (human, UniProt Q8NBP7 31-692); experiment: SPR, mAb captured, 25C
T16 construct: mmh-tagged variant hPCSK9
Text: as §3

hPCSK9(R215H) = target: T17, hPCSK9(R215H) (human, UniProt Q8NBP7 31-692); experiment: SPR, mAb captured, 25C
T17 construct: mmh-tagged variant hPCSK9
Text: as §3

Human PCSK9-myc-myc-his [12] = target: T2, Human PCSK9-myc-myc-his; experiment: SPR, mAb captured, 25C
Text: as §3

hPCSK9(D238R) = target: T18, hPCSK9(D238R) (human, UniProt Q8NBP7 31-692); experiment: SPR, mAb captured, 25C
T18 construct: mmh-tagged variant hPCSK9
Text: as §3

hPCSK9(D374Y)-mmh [13] = target: T3, hPCSK9(D374Y)-mmh; experiment: SPR, mAb captured, 25C
Text: as §3

hPCSK9(D374Y)-mmh [14] = target: T3, hPCSK9(D374Y)-mmh; experiment: competition ELISA vs EGF-AB-hFc, pH 5.5
Experimental: as §2

T1 sequence (A8T662 31-692 limits assumed): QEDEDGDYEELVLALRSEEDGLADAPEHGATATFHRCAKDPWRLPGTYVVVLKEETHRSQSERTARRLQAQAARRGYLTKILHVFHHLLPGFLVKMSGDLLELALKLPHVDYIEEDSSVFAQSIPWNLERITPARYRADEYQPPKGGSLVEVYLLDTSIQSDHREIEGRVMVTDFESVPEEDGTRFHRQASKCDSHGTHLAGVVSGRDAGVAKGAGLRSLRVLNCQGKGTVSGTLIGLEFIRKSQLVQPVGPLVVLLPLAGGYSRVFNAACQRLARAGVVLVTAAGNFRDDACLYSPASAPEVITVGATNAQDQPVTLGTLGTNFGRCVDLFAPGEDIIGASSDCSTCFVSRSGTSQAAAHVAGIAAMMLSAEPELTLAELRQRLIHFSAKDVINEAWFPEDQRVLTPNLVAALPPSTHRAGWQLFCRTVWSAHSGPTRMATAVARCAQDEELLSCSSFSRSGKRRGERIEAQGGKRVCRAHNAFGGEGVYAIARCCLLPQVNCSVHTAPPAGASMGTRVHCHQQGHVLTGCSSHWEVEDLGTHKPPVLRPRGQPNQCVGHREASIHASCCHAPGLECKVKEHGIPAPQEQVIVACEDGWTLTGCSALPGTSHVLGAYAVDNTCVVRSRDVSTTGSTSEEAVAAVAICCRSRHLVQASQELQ

B1: H1H316P (antibody, V domains shown)
VH: EVQLVESGGGLVQPGGSLRLSCAASGFTFNNYAMNWVRQAPGKGLDWVSTISGSGGTTNYADSVKGRFIISRDSSKHTLYLQMNSLRAEDTAVYYCAKDSNWGNFDLWGRGTLVTVSS
VL: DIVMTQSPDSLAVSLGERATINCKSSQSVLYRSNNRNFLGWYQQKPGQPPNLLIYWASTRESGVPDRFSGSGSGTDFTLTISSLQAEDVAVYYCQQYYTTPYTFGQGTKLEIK
notes: Fully human mAb made in CHO cells; also called mAb316P
With B1 the Kd [1] was 0.008 nM, the T1/2 [1] was 23 min and the Kd (Human PCSK9-myc-myc-his [2]) was 0.022 nM. For the same binder, the T1/2 (Human PCSK9-myc-myc-his [2]) was 39 min, the Kd (hPCSK9(D374Y)-mmh [3]) was 0.166 nM and the T1/2 (hPCSK9(D374Y)-mmh [3]) was 13 min. The “IC50, LDL uptake in HepG2 cells with 50 nM hPCSK9-mmh” value (Human PCSK9-myc-myc-his [4]) was 21.3 nM, the IC50 (Human PCSK9-myc-myc-his [5]) was < 0.125 nM and the IC50 (Human PCSK9-myc-myc-his [6]) was < 0.125 nM. The Kd (hPCSK9(D374Y)-mmh [7]) was 1.78 nM, the T1/2 (hPCSK9(D374Y)-mmh [7]) was 14 min and the IC50 (Human PCSK9-myc-myc-his [8]) was < 0.125 nM. It also gave a Kd (Human PCSK9-myc-myc-his [9]) of 0.188 nM, a T1/2 (Human PCSK9-myc-myc-his [9]) of 58 min and a Kd (Human PCSK9-myc-myc-his [10]) of 0.191 nM. For the same binder, the T1/2 (Human PCSK9-myc-myc-his [10]) was 74 min, the OD (Human PCSK9-myc-myc-his [11]) was > 1.5 od and the Kd (hPCSK9(A341R)) was 1.54 nM. The T1/2 (hPCSK9(A341R)) was 21 min, the Kd (hPCSK9(P70A)) was 1.42 nM and the T1/2 (hPCSK9(P70A)) was 32 min. For the same binder, the Kd (hPCSK9(S153R)) was 5.64 nM, the T1/2 (hPCSK9(S153R)) was 4 min and the Kd (hPCSK9(D129G)) was 1.27 nM. It also gave a T1/2 (hPCSK9(D129G)) of 36 min, a Kd (hPCSK9(S127R)) of 2.4 nM and a T1/2 (hPCSK9(S127R)) of 36 min. It also gave a Kd (hPCSK9(E159R)) of 6.96 nM, a T1/2 (hPCSK9(E159R)) of 5 min and a Kd (hPCSK9(F216L)) of 1.83 nM. It also gave a T1/2 (hPCSK9(F216L)) of 32 min, a Kd (hPCSK9(R237E)) of 2.48 nM and a T1/2 (hPCSK9(R237E)) of 15 min. For the same binder, the Kd (hPCSK9(R357H)) was 6.26 nM, the T1/2 (hPCSK9(R357H)) was 30 min and the Kd (hPCSK9(E197R)) was 1.42 nM. For the same binder, the T1/2 (hPCSK9(E197R)) was 27 min, the Kd (hPCSK9(D192R)) was 1.35 nM and the T1/2 (hPCSK9(D192R)) was 28 min. It also gave a Kd (hPCSK9(E366K)) of 2.92 nM, a T1/2 (hPCSK9(E366K)) of 13 min and a Kd (hPCSK9(E366K, V380M)) of 3.33 nM. The T1/2 (hPCSK9(E366K, V380M)) was 12 min, the Kd (hPCSK9(T162R)) was 0.98 nM and the T1/2 (hPCSK9(T162R)) was 43 min. For the same binder, the Kd (hPCSK9(R215H)) was 0.86 nM, the T1/2 (hPCSK9(R215H)) was 41 min and the Kd (Human PCSK9-myc-myc-his [12]) was 1 nM. For the same binder, the T1/2 (Human PCSK9-myc-myc-his [12]) was 37 min, the Kd (hPCSK9(D238R)) was 410 nM and the T1/2 (hPCSK9(D238R)) was 1 min. It also gave a Kd (hPCSK9(D374Y)-mmh [13]) of 2.04 nM, a T1/2 (hPCSK9(D374Y)-mmh [13]) of 15 min and an IC50 (hPCSK9(D374Y)-mmh [14]) of 1.14 nM.
